Test system: MS2 coat protein
Test: apparent KD of MS2 coat protein; designed switch direction (-1 OFF switch, 1 ON switch): -1; higher = weaker reporter binding
In short: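 Each step of the titration lasted 0.8–1.5 h at the lowest concentration and 10–20 min at the highest. The protein, SNAP-549-labelled MS2 coat protein, went from 0.7 or 1.5 nM doubling to 3 µM over RNA switches transcribed on Illumina chips by stalled E. coli RNA polymerase. Normalised cluster fluorescence was curve-fitted, and the per-design median over clusters is given as apparent KD.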

[1] = input ligand: microRNA oligo, concentration not stated
[2] = Eterna round: R95, input ligand: FMN 200 uM
[3] = Eterna round: R95, input ligand: microRNA oligo, concentration not stated
[4] = Eterna round: R95, input ligand: none

Sequence | apparent KD of MS2 coat protein (input ligand: FMN 200 uM) | apparent KD of MS2 coat protein (input ligand: none) | also measured
ACAUGAGGAUCACCCAUGUAAUCAUGAUGGCUGAUGUAGAGGUAGGAUAUGUGUGGCUUUCUAUCACAGAAGGACCAAGACUGG [Deportation 38 - Jieux - Exclusion NG 3] (Eterna round: R96, puzzle: Exclusion NG 3) | 46.3 nM | 59.8 nM | apparent KD of MS2 coat protein [1]: 46.6 nM
CCUAGUUGGUAAGGAUAUCCUACAUUGUUCUGACCCGGGCAUGCUACAUGAGGAUCACCCAUGUGGGAGAAGGUGCGUCAUCGC [Design 16] (Eterna round: R96, puzzle: Exclusion NG 2) | 80.4 nM | 83.4 nM | apparent KD of MS2 coat protein [1]: 55.9 nM
CUUAGCCUAAAAUCACGCAAGCUUUCUGCUUGUCUUAAGACAUGAGGAUCACCCAUGUCCGGGCUGAACUUAUGGAA [Inve] (puzzle: Sensor v3, turn-off variant 2) |  |  | apparent KD of MS2 coat protein [2]: 18.8 nM; apparent KD of MS2 coat protein [3]: 22.5 nM
UCCGGACAUGAGGAUCACCCAUGUUAGGAUAUCUGAGGUGUGCCAGGAUCCUGGGCCCAGAGAAGGAAUAUGGC [Eternabot (L2) Solution 28] (Eterna round: R97, puzzle: Exclusion 1) | 21.7 nM | 19.8 nM | 
UGAUCUAGCGGAGGAUAUACAUGAGGAUCACCCAUGUAGACUCUAUGACCGUAGUCGUGGAGUGUGUAGAAGGCCGCUAGAUCU [JL ENG2 3.74] (Eterna round: R96, puzzle: Exclusion NG 2) | 14.3 nM | 12.6 nM | apparent KD of MS2 coat protein [1]: 9.24 nM
UGUGCGUAUGUGAGGAUAUGCUGGUCCUUGGAUCAGCAGAAGGCACAUGAGGAUCACCCAUGUGGUGUCGUACA [salish99_Bmod_Ex4_007] (puzzle: Brourd's mod of Exclusion 4) |  |  | apparent KD of MS2 coat protein [2]: 29.2 nM; apparent KD of MS2 coat protein [3]: 158 nM; apparent KD of MS2 coat protein [4]: 307 nM
ACGUAUAGAGGAUAUAGUGAAUAUUACAUGAGGAUCACCCAUGUUCUUCAAAGCAUAUUCCUAGAAGGCUGAUGAA [EX-5 Malc#13] (puzzle: Exclusion 5) |  |  | apparent KD of MS2 coat protein [3]: 47.5 nM
UUCAUGUAAGGAUAUCGUGCAAGUUUCAAAAGAGGCUUGUGCGAGAAGGUACAUGAGGAUCACCCAUGUAGGUU [Omei Ex4 B9] (Eterna round: R97, puzzle: Exclusion 4) | 86.9 nM | 754 nM | 
UGUUCGUCAGGAUAUUCUACUUAUUACAUGAGGAUCACCCAUGUGUAUGUACAAGGGUGUGAAGAAGGGACUUGUC [LRO-Excl5-07-mod A17d by Omei] (Eterna round: R97, puzzle: Exclusion 5) | 331 nM | 1240 nM | 
ACACAAAGCUAGGAUAUCGAGGCAUCUUCGGCCCGAGAAGGAGCCACAUGAGGAUCACCCAUGUGGUGAUCCUG [eternacac ex6r4 sub4] (Eterna round: R97, puzzle: Exclusion 6) | 100 nM | 121 nM | 
UGUUGUCGCGCAGGAUAUGAGGAUCACCCAUAUACAGGAUAUGAAAAGAAGGGUCUGAGGAUCACCCAGAAGGGCGGGACAACU [pwkr exNG2 2xF5 2xFMN.27] (Eterna round: R96, puzzle: Exclusion NG 2) | 1340 nM | 135 nM | apparent KD of MS2 coat protein [1]: 99.9 nM
AGUUGGCGAGGAUAUACAUGAGGAUCACCCAUGUGAGAGAUACUAGUGAGGUCGGUUAGUAGAAGGCGCUGACA [Mat X3R4 m16] (Eterna round: R97, puzzle: Exclusion 3) | 344 nM | 35.5 nM | 
CCUGAUCCACAGGAUAUGCUCAUCUAAUGAUGAGCAGAAGGGUGGACAUGAGGAUCACCCAUGUUUAUCAAUGG [Omei Ex6 D4] (Eterna round: R97, puzzle: Exclusion 6) | 804 nM | 125 nM | 
UUUUUCGAACAAGCUUCGUACAUGAGGAUCACCCAUGUUUUUAGUUUUGUGUUGGUCAGUAUGGAAGUUCGUCUUAU [JR_SV3TOV1_Sub088] (puzzle: Sensor v3, turn-off variant 1) |  |  | apparent KD of MS2 coat protein [2]: 239 nM; apparent KD of MS2 coat protein [3]: 356 nM; apparent KD of MS2 coat protein [4]: 288 nM
CCUCCACAUGAGGAUCACCCAUGUCAGGAUAUCGUGUGUUUUUUUUCGGUCUUUCGUGCGAGAAGGGACGUCUU (puzzle: Exclusion 1) |  |  | apparent KD of MS2 coat protein [3]: 30.8 nM
CAGAACAGAGGAUAUACAUGAGGAUCACCCAUGUGUUCCAGCUAGGAGACUAGCAUAUGUAGAAGGCUGUUCUG [Mat - Exclusion 3 - JL Mod - D12] (Eterna round: R97, puzzle: Exclusion 3) | 87.7 nM | 161 nM | 
UUUUAACAUGAGGAUCACCCAUGUGAGGAUAUCGAAAUUUAUAUUUAUAUUAAUUUAACGAGAAGGCACAUUUU [JMF 87] (puzzle: Exclusion 1) |  |  | apparent KD of MS2 coat protein [3]: 84.4 nM
CGGGCGCGUGUAGGAUAUCGGGCCCGGUGGGCCCGAGAAGGACAUGAGGAUCACCCAUGUGCCCGGGUUGCCCGGGCGCGCCCG [-50, -49 kcal and 14% A] (Eterna round: R96, puzzle: Exclusion NG 1) | 14.6 nM | 14.5 nM | apparent KD of MS2 coat protein [1]: 7.82 nM

Sequence | apparent KD of MS2 coat protein (input ligand: FMN 200 uM) | apparent KD of MS2 coat protein (input ligand: none) | also measured
UAAGGACAUGAGGAUCACCCAUGUUAGGAUAUGCCGAGGGAGACCCGUGUUGACACUUGCAGAAGGAGUAUGGG [Eternabot (L1) Solution 25] (Eterna round: R97, puzzle: Exclusion 1) | 70.4 nM | 86.2 nM | 
AUUAUAUAGUAAGGAUAUAGAUUAUUAUUUUAACAUGAGGAUCACCCAUGUAGCCUUAUGUAUAACUAGAAGGUACAUUUAUUA [Title] (Eterna round: R96, puzzle: Exclusion NG 2) |  |  | apparent KD of MS2 coat protein [1]: 35.7 nM
AAACAAACGGGAGGAUAUCGACAUAUUCAACUGCGAGAAGGCCCAAAAGACAUGAGGAUCACCCAUGUAAACCGGGUGAGAAAU [Rimabi] (Eterna round: R96, puzzle: Exclusion NG 1) | 934 nM | 215 nM | apparent KD of MS2 coat protein [1]: 185 nM
UUUGUCUGUGUGAGGAUAUACUUGUUUGGGUUUUUGUAGAAGGCACAUGAGGAUCACCCAUGUAUUUUGUUGUG [JR_BME4_Sub017] (Eterna round: R96, puzzle: Brourd's mod of Exclusion 4) | 86.5 nM | 55.9 nM | apparent KD of MS2 coat protein [1]: 47.7 nM
CCGACUCAAGGAUAUUGUACUGCUGACAUGAGGAUCACCCAUGUAUGUUAACUCGGCCGACGAGAAGGUGACGACA [BotMod 1 - Jieux - Exclusion 5] (Eterna round: R97, puzzle: Exclusion 5) | 39.6 nM | 43.1 nM | 
AGAGUGUGAGGAUAUACAUGAGGAUCACCCAUGUAAUAACAGGUUACGGGCGGCACCAGUAGAAGGCACUUGUC [Eternabot (L2) Solution 22] (Eterna round: R97, puzzle: Exclusion 3) | 42 nM | 28.2 nM | 
UGAGUGCUGCGAGGAUAUACAUGAGGAUCACCCAUGUAUACCUGUGAGGCUUUGCCUCACAGGUAGUAGAAGGCGCAGUACUCU [Mat - Exclusion NG 2 - Mod of JL - D44] (Eterna round: R96, puzzle: Exclusion NG 2) | 13.1 nM | 12.8 nM | apparent KD of MS2 coat protein [1]: 9.11 nM
AACUGUACAGGAUAUACAUGAGGAUCACCCAUGUGAGAAUUAAGUGGAGAACCACAAAGUAGAAGGGUACAGGA [Mat - Exclusion 3 - JL mod - D17] (Eterna round: R96, puzzle: Exclusion 3) |  |  | apparent KD of MS2 coat protein [1]: 38.4 nM
UUUGUCUGUGUGAGGAUAUACUUGUUUGGGUUUUUGUAGAAGGCACAUGAGGAUCACCCAUGUAUUUUGUUGUG [JR_BME4_Sub017] (puzzle: Brourd's mod of Exclusion 4) |  |  | apparent KD of MS2 coat protein [3]: 49.7 nM
AGUACUAACACGAAAGUGUUUGUACAAUAAGCUUGUGAAACAUGAGGAUCACCCAUGUCCUCAUAAGCUCGUCUUAU [salish99_TOv2_r3_035] (puzzle: Sensor v3, turn-off variant 2) |  |  | apparent KD of MS2 coat protein [2]: 17.5 nM; apparent KD of MS2 coat protein [3]: 580 nM; apparent KD of MS2 coat protein [4]: 17.1 nM
AAAUUAGCAAGUAGGUCCGACAUGAGGAUCACCCAUGUAAGCUAAUCUUACGCUGCAUGAGAGUGCGCUCGUCUUAA [Sensor-V1 #19] (Eterna round: R97, puzzle: Sensor, turn-off variant 1) | 360 nM | 515 nM | 
UAGAAAGGUAAGGAUAUCCUUGAGAAAGAAAGAGGAGAAGGUACCACAUGAGGAUCACCCAUGUGGCUCUCAAA [jl-ex6-4.57 Nando mod] (Eterna round: R97, puzzle: Exclusion 6) | 15.2 nM | 13.7 nM | 
UUCCUCGUUGUGAGGAUAUCGUCCUAUUUUUGUUACGAGAAGGCACAUGAGGAUCACCCAUGUUACUUGAUGUU [JR_BMOE4_Sub071] (puzzle: Brourd's mod of Exclusion 4) |  |  | apparent KD of MS2 coat protein [3]: 21.2 nM
UUUAACAGAGGAUAUGCGAAUAAAUAAAACUUUUUUUUUUAACAUGAGGAUCACCCAUGUAGAAGGCUGAUAUU [Ex2 #23] (Eterna round: R97, puzzle: Exclusion 2) | 34.9 nM | 29.9 nM | 
AAAUAGAAUGAGGAUAUCGAAUUAUAUAUAGUACGAGAAGGCAUUACAUGAGGAUCACCCAUGUUUUGUUGGGA [JR_Ex6_Sub001] (Eterna round: R97, puzzle: Exclusion 6) | 73 nM | 27.6 nM | 
CAGUACUGAGGAUAUACAUGAGGAUCACCCAUGUGUCUAAUAUUAGGAAACUAGGUAUGUAGAAGGCAGUACUG [Omei Ex3 Mod of Eli 4.27 v6] (Eterna round: R97, puzzle: Exclusion 3) | 318 nM | 36.1 nM | 
ACCGUGCAAGGAUAUCGUUACCUCGACAUGAGGAUCACCCAUGUGGCCAUAUAGCGAUUGCGAGAAGGUGCGGGUA [Aatveti] (puzzle: Exclusion 5) |  |  | apparent KD of MS2 coat protein [3]: 85.2 nM

Reference: the supplement of paper PMC9170038
